The target of assay [1] is T1, rat calcitonin receptor (rat, UniProt P32214 25-516).
T1 construct: whole, on cells; Used as membranes prepared from BHK tk'ts 13 cells transiently transfected with the rat calcitonin receptor (Assay VIII); also called rCTR; rat calcitonin (a) receptor
T1 sequence (looked up): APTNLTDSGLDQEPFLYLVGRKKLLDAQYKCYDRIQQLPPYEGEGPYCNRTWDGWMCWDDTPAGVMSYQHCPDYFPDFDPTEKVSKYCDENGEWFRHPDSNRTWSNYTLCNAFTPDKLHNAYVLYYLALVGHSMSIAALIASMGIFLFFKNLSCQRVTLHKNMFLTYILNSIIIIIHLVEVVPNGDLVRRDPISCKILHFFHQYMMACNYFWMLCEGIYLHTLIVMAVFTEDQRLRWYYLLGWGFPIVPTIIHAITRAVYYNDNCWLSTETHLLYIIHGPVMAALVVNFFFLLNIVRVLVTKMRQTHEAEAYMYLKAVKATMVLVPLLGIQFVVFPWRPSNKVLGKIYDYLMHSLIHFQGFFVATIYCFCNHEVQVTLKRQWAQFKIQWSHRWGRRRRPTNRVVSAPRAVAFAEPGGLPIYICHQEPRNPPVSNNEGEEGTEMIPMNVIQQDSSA
In words: IC50 on rat CTR divided by IC50 on rat amylin receptor (Assays VIII/VI).

Assay [2] addresses T2, human calcitonin receptor (human, UniProt P30988 25-474).
T2 construct: whole, on cells; Used as membranes prepared from a BHK tk'ts 13 cell line stably transfected with the human calcitonin receptor (Assay VII); also called hCTR; hCT
T2 sequence (looked up): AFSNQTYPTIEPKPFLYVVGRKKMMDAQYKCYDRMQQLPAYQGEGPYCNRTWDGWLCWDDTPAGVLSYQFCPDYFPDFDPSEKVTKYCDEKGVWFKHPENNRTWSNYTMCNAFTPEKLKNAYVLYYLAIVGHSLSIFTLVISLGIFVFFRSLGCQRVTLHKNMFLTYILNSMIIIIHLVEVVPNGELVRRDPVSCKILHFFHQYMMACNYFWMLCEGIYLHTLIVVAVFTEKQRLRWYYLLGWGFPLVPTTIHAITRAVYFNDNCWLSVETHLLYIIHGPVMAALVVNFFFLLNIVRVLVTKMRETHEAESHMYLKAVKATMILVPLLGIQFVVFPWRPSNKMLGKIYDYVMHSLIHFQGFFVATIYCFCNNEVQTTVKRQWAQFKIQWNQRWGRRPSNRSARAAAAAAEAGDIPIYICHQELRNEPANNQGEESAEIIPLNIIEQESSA
Description: IC50 on human CTR divided by IC50 on human amylin receptor (Assays VII/V). An outline of the steps: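 Competition binding by SPA with cell membranes (35 ng/μL) and SPA beads in 50 mM Hepes pH 7.4 with 1 mM CaCl2, 5 mM MgCl2, 0.1% OA and 0.02% Tween20. Incubated 120 min at 25 °C with shaking, then counted.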

Assay [3] deals with T3, rat amylin receptor (rat calcitonin receptor + rat RAMP 3) (rat, UniProt P32214 25-516; Q9JJ73 23-147).
T3 construct: whole, on cells; Used as membranes prepared from BHK tk'ts 13 cells transiently transfected with rat calcitonin receptor and rat RAMP 3 (Assay VI); also called rAmylin-R; rat amylin 3(a) receptor
T3 sequence (looked up) 1: T1 sequence (looked up)
T3 sequence (looked up) 2: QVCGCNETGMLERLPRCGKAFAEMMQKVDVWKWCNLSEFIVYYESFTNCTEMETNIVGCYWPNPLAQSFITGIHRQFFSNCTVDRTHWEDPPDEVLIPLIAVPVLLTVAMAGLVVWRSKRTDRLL
Description: SPA competition with 125I-rat amylin, membranes of BHK cells with rat CTR + rat RAMP3 (Assay VI).

In assay [4] the target is T1, rat calcitonin receptor. Description: SPA competition with 125I-calcitonin, membranes of BHK cells with rat CTR (Assay VIII).

Data on 4 molecules can be found in patent US20140087995A1 (published 2014).

What is called IC50 is the point on the concentration scale where inhibition reaches its midpoint.

Numbered stars: 1 amine (or outer) side, 2 acyl side, 3 side chain; on linkers, the order of the positions; unused ones are H or OH. Bridge positions count the residues as written; N and C are the ends. Side chains are listed from the residue outwards. Ends that are not written are not given here. * marks the point of attachment. C20 diacid = O=C(O)CCCCCCCCCCCCCCCCCCC(=O)*; γGlu = O=C(O)[C@H](CCC(=O)[*:2])N[*:1]

B1: N^ε-[(4S)-4-carboxy-4-(19-carboxynonadecanoylamino)butanoyl]Lys[Arg1,Arg17,Pro21,Pro27,His35]-h-amylin (peptide)
peptide: K([γGlu-C20 diacid])RCNTATCATQRLANFLRHSSPNFGAIPSSTNVGSHTY-NH2
modifications: disulfide 3-8; N-terminus assumed
SMILES: CC[C@H](C)[C@H](NC(=O)[C@H](C)NC(=O)CNC(=O)[C@H](Cc1ccccc1)NC(=O)[C@H](CC(N)=O)NC(=O)[C@@H]1CCCN1C(=O)[C@H](CO)NC(=O)[C@H](CO)NC(=O)[C@H](Cc1c[nH]cn1)NC(=O)[C@H](CCCNC(=N)N)NC(=O)[C@H](CC(C)C)NC(=O)[C@H](Cc1ccccc1)NC(=O)[C@H](CC(N)=O)NC(=O)[C@H](C)NC(=O)[C@H](CC(C)C)NC(=O)[C@H](CCCNC(=N)N)NC(=O)[C@H](CCC(N)=O)NC(=O)[C@@H](NC(=O)[C@H](C)NC(=O)[C@@H]1CSSC[C@H](NC(=O)[C@H](CCCNC(=N)N)NC(=O)[C@@H](N)CCCCNC(=O)CC[C@H](NC(=O)CCCCCCCCCCCCCCCCCCC(=O)O)C(=O)O)C(=O)N[C@@H](CC(N)=O)C(=O)N[C@@H]([C@@H](C)O)C(=O)N[C@@H](C)C(=O)N[C@@H]([C@@H](C)O)C(=O)N1)[C@@H](C)O)C(=O)N1CCC[C@H]1C(=O)N[C@@H](CO)C(=O)N[C@@H](CO)C(=O)N[C@H](C(=O)N[C@@H](CC(N)=O)C(=O)N[C@H](C(=O)NCC(=O)N[C@@H](CO)C(=O)N[C@@H](Cc1c[nH]cn1)C(=O)N[C@H](C(=O)N[C@@H](Cc1ccc(O)cc1)C(N)=O)[C@@H](C)O)C(C)C)[C@@H](C)O
notes: Analogue of human amylin; also called compound 44
As to B1, the “Ratio rCT/rAmylin binding” value with rat calcitonin receptor [1] amounted to 53.3. For the same molecule, the “Ratio hCT/hAmylin binding” value in assay [2] is 17.7. Moreover, the values for the IC50 (in assay [3]; with rat calcitonin receptor [4]) were 0.369 nM and 19.6 nM, respectively.

B2: N^-1-[(4S)-4-carboxy-4-(19-carboxynonadecanoylamino)butanoyl]-Gly[Arg1,Arg17,Pro21,Pro27]-h-amylin (peptide)
peptide: {C20 diacid-γGlu}-GRCNTATCATQRLANFLRHSSPNFGAIPSSTNVGSNTY-NH2
modifications: disulfide 3-8
SMILES: CC[C@H](C)[C@H](NC(=O)[C@H](C)NC(=O)CNC(=O)[C@H](Cc1ccccc1)NC(=O)[C@H](CC(N)=O)NC(=O)[C@@H]1CCCN1C(=O)[C@H](CO)NC(=O)[C@H](CO)NC(=O)[C@H](Cc1c[nH]cn1)NC(=O)[C@H](CCCNC(=N)N)NC(=O)[C@H](CC(C)C)NC(=O)[C@H](Cc1ccccc1)NC(=O)[C@H](CC(N)=O)NC(=O)[C@H](C)NC(=O)[C@H](CC(C)C)NC(=O)[C@H](CCCNC(=N)N)NC(=O)[C@H](CCC(N)=O)NC(=O)[C@@H](NC(=O)[C@H](C)NC(=O)[C@@H]1CSSC[C@H](NC(=O)[C@H](CCCNC(=N)N)NC(=O)CNC(=O)CC[C@H](NC(=O)CCCCCCCCCCCCCCCCCCC(=O)O)C(=O)O)C(=O)N[C@@H](CC(N)=O)C(=O)N[C@@H]([C@@H](C)O)C(=O)N[C@@H](C)C(=O)N[C@@H]([C@@H](C)O)C(=O)N1)[C@@H](C)O)C(=O)N1CCC[C@H]1C(=O)N[C@@H](CO)C(=O)N[C@@H](CO)C(=O)N[C@H](C(=O)N[C@@H](CC(N)=O)C(=O)N[C@H](C(=O)NCC(=O)N[C@@H](CO)C(=O)N[C@@H](CC(N)=O)C(=O)N[C@H](C(=O)N[C@@H](Cc1ccc(O)cc1)C(N)=O)[C@@H](C)O)C(C)C)[C@@H](C)O
notes: Analogue of human amylin; also called compound 46
For B2, the “Ratio rCT/rAmylin binding” value in the assay with rat calcitonin receptor [1] turned out to be 142. Besides, the “Ratio hCT/hAmylin binding” value in assay [2] is 48.9. In addition, the IC50 is 0.33 nM in assay [3] and 46.8 nM with rat calcitonin receptor [4].

B3: N^-1-[(4S)-4-carboxy-4-(19-carboxynonadecanoylamino)butanoyl]-Gly[Arg1,Arg17,Pro21,Pro27,His35]-h-amylin (peptide)
peptide: {C20 diacid-γGlu}-GRCNTATCATQRLANFLRHSSPNFGAIPSSTNVGSHTY-NH2
modifications: disulfide 3-8
SMILES: CC[C@H](C)[C@H](NC(=O)[C@H](C)NC(=O)CNC(=O)[C@H](Cc1ccccc1)NC(=O)[C@H](CC(N)=O)NC(=O)[C@@H]1CCCN1C(=O)[C@H](CO)NC(=O)[C@H](CO)NC(=O)[C@H](Cc1c[nH]cn1)NC(=O)[C@H](CCCNC(=N)N)NC(=O)[C@H](CC(C)C)NC(=O)[C@H](Cc1ccccc1)NC(=O)[C@H](CC(N)=O)NC(=O)[C@H](C)NC(=O)[C@H](CC(C)C)NC(=O)[C@H](CCCNC(=N)N)NC(=O)[C@H](CCC(N)=O)NC(=O)[C@@H](NC(=O)[C@H](C)NC(=O)[C@@H]1CSSC[C@H](NC(=O)[C@H](CCCNC(=N)N)NC(=O)CNC(=O)CC[C@H](NC(=O)CCCCCCCCCCCCCCCCCCC(=O)O)C(=O)O)C(=O)N[C@@H](CC(N)=O)C(=O)N[C@@H]([C@@H](C)O)C(=O)N[C@@H](C)C(=O)N[C@@H]([C@@H](C)O)C(=O)N1)[C@@H](C)O)C(=O)N1CCC[C@H]1C(=O)N[C@@H](CO)C(=O)N[C@@H](CO)C(=O)N[C@H](C(=O)N[C@@H](CC(N)=O)C(=O)N[C@H](C(=O)NCC(=O)N[C@@H](CO)C(=O)N[C@@H](Cc1c[nH]cn1)C(=O)N[C@H](C(=O)N[C@@H](Cc1ccc(O)cc1)C(N)=O)[C@@H](C)O)C(C)C)[C@@H](C)O
notes: Analogue of human amylin; also called compound 47
For B3, the “Ratio rCT/rAmylin binding” value with rat calcitonin receptor [1] was found to be 84.3. For the same molecule, the “Ratio hCT/hAmylin binding” value in assay [2] came out at 44.9. Moreover, the IC50 in assay [3] is 0.203 nM; with rat calcitonin receptor [4] it was 17.1 nM.

B4: N^ε21-[(4S)-4-carboxy-4-[[(4S)-4-carboxy-4-(19-carboxynonadecanoylamino)butanoyl]amino]butanoyl]-[Asp14,Arg17,Lys21,Pro27,Asp35]-h-amylin (peptide)
peptide: KCNTATCATQRLADFLRHSSK([γGlu-γGlu-C20 diacid])NFGAIPSSTNVGSDTY-NH2
modifications: disulfide 2-7; N-terminus assumed
SMILES: CC[C@H](C)[C@H](NC(=O)[C@H](C)NC(=O)CNC(=O)[C@H](Cc1ccccc1)NC(=O)[C@H](CC(N)=O)NC(=O)[C@H](CCCCNC(=O)CC[C@H](NC(=O)CC[C@H](NC(=O)CCCCCCCCCCCCCCCCCCC(=O)O)C(=O)O)C(=O)O)NC(=O)[C@H](CO)NC(=O)[C@H](CO)NC(=O)[C@H](Cc1c[nH]cn1)NC(=O)[C@H](CCCNC(=N)N)NC(=O)[C@H](CC(C)C)NC(=O)[C@H](Cc1ccccc1)NC(=O)[C@H](CC(=O)O)NC(=O)[C@H](C)NC(=O)[C@H](CC(C)C)NC(=O)[C@H](CCCNC(=N)N)NC(=O)[C@H](CCC(N)=O)NC(=O)[C@@H](NC(=O)[C@H](C)NC(=O)[C@@H]1CSSC[C@H](NC(=O)[C@@H](N)CCCCN)C(=O)N[C@@H](CC(N)=O)C(=O)N[C@@H]([C@@H](C)O)C(=O)N[C@@H](C)C(=O)N[C@@H]([C@@H](C)O)C(=O)N1)[C@@H](C)O)C(=O)N1CCC[C@H]1C(=O)N[C@@H](CO)C(=O)N[C@@H](CO)C(=O)N[C@H](C(=O)N[C@@H](CC(N)=O)C(=O)N[C@H](C(=O)NCC(=O)N[C@@H](CO)C(=O)N[C@@H](CC(=O)O)C(=O)N[C@H](C(=O)N[C@@H](Cc1ccc(O)cc1)C(N)=O)[C@@H](C)O)C(C)C)[C@@H](C)O
notes: Analogue of human amylin; also called compound 59
In the case of B4, the “Ratio rCT/rAmylin binding” value with rat calcitonin receptor [1] stood at 28.5. In addition, in assay [2], the “Ratio hCT/hAmylin binding” value was 4.3. In addition, the IC50 in assay [3] came to 0.659 nM; in the assay with rat calcitonin receptor [4] it was 18.8 nM.
